Assay results reported in publication PMC9482650, “Quantitative fragmentomics allow affinity mapping of interactomes” (Nature Communications, 2022).
Values belong to the binder of their own block, whether it stands above or below them.

What was measured:
Experiment in all cases: holdup assay
Design in all cases: key: below the threshold = too weak to quantify, mostly under pKd 3.1 to 4
Conditions in all cases: plain residues with an end cap or a label only (N-terminal biotin on a linker: ado-ado)
AHNAK1, Q09666 = biological target: AHNAK1, Q09666
AHNAK1, Q09666, sequence (Q09666 4-100): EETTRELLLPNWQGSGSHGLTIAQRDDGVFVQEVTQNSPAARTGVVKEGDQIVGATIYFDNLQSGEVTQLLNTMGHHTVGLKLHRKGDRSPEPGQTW

APBA2_1, Q99767 = biological target: T1, APBA2_1, Q99767
T1 sequence (Q99767 563-664, limits assumed, looked up): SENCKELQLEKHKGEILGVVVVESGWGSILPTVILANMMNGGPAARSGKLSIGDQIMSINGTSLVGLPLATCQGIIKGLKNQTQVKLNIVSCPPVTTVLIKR

DFNB31_3, Q9P202 = biological target: T2, DFNB31_3, Q9P202
T2 sequence (Q9P202 811-907, limits assumed, looked up): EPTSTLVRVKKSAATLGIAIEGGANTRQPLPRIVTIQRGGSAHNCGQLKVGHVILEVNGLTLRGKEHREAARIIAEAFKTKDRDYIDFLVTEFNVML

DLG1_2, Q12959 = biological target: DLG1_2, Q12959
DLG1_2, Q12959, sequence (Q12959 314-412): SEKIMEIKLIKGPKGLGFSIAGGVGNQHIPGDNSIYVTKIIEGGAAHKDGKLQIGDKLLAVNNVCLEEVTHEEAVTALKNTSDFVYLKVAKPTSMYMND

DLG1_3, Q12959 = biological target: DLG1_3, Q12959
DLG1_3, Q12959, sequence (Q12959 457-571): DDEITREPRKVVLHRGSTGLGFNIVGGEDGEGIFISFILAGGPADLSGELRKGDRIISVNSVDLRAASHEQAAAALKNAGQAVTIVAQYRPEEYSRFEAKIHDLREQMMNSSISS

DLG3_1, Q92796 = biological target: T3, DLG3_1, Q92796
T3 sequence (Q92796 125-227, limits assumed, looked up): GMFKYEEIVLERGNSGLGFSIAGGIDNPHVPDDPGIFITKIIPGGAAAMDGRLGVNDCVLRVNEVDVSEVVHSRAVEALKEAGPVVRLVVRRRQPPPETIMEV

GORASP1, Q9BQQ3 = biological target: GORASP1, Q9BQQ3
GORASP1, Q9BQQ3, sequence (Q9BQQ3 1-208): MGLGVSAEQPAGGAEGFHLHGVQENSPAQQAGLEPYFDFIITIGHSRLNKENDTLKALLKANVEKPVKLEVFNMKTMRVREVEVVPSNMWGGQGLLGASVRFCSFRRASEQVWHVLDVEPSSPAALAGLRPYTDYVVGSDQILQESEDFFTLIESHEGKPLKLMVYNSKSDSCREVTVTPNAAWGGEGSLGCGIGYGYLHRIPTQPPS

HTRA3, P83110 = biological target: T4, HTRA3, P83110
T4 sequence (P83110 354-453, limits assumed, looked up): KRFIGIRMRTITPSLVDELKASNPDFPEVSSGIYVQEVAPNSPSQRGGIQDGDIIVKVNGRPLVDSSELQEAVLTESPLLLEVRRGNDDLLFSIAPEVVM

Inadl_2, Q8NI35 = biological target: Inadl_2, Q8NI35
Inadl_2, Q8NI35, sequence (Q8NI35 238-335): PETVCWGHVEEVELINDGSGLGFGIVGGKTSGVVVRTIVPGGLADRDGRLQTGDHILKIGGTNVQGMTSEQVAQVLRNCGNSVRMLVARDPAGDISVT

Inadl_9, Q8NI35 = biological target: Inadl_9, Q8NI35
Inadl_9, Q8NI35, sequence (Q8NI35 1530-1615): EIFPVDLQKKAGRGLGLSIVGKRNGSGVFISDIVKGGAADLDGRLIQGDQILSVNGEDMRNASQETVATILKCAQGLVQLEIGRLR

LDB3, O75112 = biological target: LDB3, O75112
LDB3, O75112, sequence (O75112 1-94): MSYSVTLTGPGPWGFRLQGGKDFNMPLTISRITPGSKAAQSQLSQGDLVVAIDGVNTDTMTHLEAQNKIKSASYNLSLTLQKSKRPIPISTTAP

LNX1_2, Q8TBB1 = biological target: LNX1_2, Q8TBB1
LNX1_2, Q8TBB1, sequence (Q8TBB1 371-470): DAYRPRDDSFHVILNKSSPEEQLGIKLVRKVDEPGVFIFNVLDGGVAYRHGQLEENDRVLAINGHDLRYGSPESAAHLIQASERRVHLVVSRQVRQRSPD

LNX2_2, Q8N448 = biological target: T5, LNX2_2, Q8N448
T5 sequence (Q8N448 334-432, limits assumed, looked up): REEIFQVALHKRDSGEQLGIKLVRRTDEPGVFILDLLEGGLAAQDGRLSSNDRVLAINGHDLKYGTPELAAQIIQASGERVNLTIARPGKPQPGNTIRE

MAGI1_2, Q96QZ7 = biological target: MAGI1_2, Q96QZ7
MAGI1_2, Q96QZ7, sequence (Q96QZ7 456-580): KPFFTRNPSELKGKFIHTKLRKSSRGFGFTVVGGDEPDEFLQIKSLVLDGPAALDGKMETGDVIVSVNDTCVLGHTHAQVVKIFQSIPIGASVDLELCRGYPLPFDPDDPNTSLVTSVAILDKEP

MPDZ_10, O75970 = biological target: T6, MPDZ_10, O75970
T6 sequence (O75970 1624-1722, limits assumed, looked up): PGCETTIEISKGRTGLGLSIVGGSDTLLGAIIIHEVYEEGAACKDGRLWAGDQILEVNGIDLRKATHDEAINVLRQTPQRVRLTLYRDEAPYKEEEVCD

MPP6, Q9NZW5 = biological target: T7, MPP6, Q9NZW5
T7 sequence (Q9NZW5 125-219, limits assumed, looked up): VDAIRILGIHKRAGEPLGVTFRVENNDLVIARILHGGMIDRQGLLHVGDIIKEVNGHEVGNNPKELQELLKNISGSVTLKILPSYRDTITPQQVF

NHERF3_1, Q5T2W1 = biological target: T8, NHERF3_1, Q5T2W1
T8 sequence (Q5T2W1 4-100, limits assumed, looked up): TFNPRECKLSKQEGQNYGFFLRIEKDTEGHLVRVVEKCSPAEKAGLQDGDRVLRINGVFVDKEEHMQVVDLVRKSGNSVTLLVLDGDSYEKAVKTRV

NHERF3_3, Q5T2W1 = biological target: T9, NHERF3_3, Q5T2W1
T9 sequence (Q5T2W1 238-333, limits assumed, looked up): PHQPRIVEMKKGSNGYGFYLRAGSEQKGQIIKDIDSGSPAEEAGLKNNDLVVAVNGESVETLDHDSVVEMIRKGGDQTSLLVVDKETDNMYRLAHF

NHERF4_1, Q86UT5-2 = biological target: NHERF4_1, Q86UT5-2
NHERF4_1, Q86UT5-2, sequence (Q86UT5 other isoform, or with tags, fused parts or gaps): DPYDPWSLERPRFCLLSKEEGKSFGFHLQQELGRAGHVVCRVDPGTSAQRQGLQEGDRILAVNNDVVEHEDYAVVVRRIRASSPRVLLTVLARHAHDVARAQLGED

NOS1, P29475 = biological target: NOS1, P29475
NOS1, P29475, sequence (P29475 9-101): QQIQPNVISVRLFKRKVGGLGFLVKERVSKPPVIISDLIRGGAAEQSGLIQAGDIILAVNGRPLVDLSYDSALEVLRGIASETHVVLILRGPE

PDLIM1, O00151 = biological target: PDLIM1, O00151
PDLIM1, O00151, sequence (O00151 1-87): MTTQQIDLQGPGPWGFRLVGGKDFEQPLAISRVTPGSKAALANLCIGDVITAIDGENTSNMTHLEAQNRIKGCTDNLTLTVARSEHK

PICK1, Q9NRD5 = biological target: PICK1, Q9NRD5
PICK1, Q9NRD5, sequence (Q9NRD5 17-115): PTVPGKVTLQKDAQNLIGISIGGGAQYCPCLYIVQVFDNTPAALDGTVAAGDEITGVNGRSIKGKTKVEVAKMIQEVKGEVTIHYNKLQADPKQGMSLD

RAPGEF6, Q8TEU7 = biological target: T10, RAPGEF6, Q8TEU7
T10 sequence (Q8TEU7 525-625, limits assumed, looked up): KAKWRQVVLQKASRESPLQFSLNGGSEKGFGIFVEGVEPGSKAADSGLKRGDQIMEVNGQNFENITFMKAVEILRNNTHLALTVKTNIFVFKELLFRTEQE

SCRIB_3, Q14160 = biological target: SCRIB_3, Q14160
SCRIB_3, Q14160, sequence (Q14160 999-1103): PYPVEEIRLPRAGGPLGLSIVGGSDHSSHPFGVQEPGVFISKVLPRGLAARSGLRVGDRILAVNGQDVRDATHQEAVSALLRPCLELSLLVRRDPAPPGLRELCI

SNTA1, Q13424 = biological target: T11, SNTA1, Q13424
T11 sequence (Q13424 82-180, limits assumed, looked up): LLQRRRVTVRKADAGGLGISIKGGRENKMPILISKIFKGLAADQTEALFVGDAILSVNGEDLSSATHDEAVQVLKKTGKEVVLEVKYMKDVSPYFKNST

TJP3_3, O95049 = biological target: T12, TJP3_3, O95049
T12 sequence (O95049 375-456, limits assumed, looked up): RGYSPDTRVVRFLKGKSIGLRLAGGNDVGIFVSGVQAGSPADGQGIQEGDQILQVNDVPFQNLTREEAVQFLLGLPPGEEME

B1: MKNK1, Q9BUB5 (peptide)
chain: GEDRSPPTAL
pKd (AHNAK1, Q09666): below the threshold | pKd (APBA2_1, Q99767): below the threshold | pKd (DFNB31_3, Q9P202): below the threshold | pKd (DLG1_2, Q12959): below the threshold | pKd (DLG1_3, Q12959): below the threshold | pKd (DLG3_1, Q92796): below the threshold | pKd (GORASP1, Q9BQQ3): below the threshold | pKd (HTRA3, P83110): below the threshold | pKd (Inadl_2, Q8NI35): below the threshold | pKd (Inadl_9, Q8NI35): below the threshold | pKd (LDB3, O75112): below the threshold | pKd (LNX1_2, Q8TBB1): below the threshold | pKd (LNX2_2, Q8N448): below the threshold | pKd (MAGI1_2, Q96QZ7): below the threshold | pKd (MPDZ_10, O75970): below the threshold | pKd (MPP6, Q9NZW5): 3.59 | pKd (NHERF3_1, Q5T2W1): 3.71 | pKd (NHERF3_3, Q5T2W1): below the threshold | pKd (NHERF4_1, Q86UT5-2): 4.34 | pKd (NOS1, P29475): 3.8 | pKd (PDLIM1, O00151): below the threshold | pKd (PICK1, Q9NRD5): below the threshold | pKd (RAPGEF6, Q8TEU7): below the threshold | pKd (SCRIB_3, Q14160): 4.57 | pKd (SNTA1, Q13424): below the threshold | pKd (TJP3_3, O95049): below the threshold

B2: MTNR1A, P48039 (peptide)
chain: NNNVVKVDSV
pKd (AHNAK1, Q09666): below the threshold | pKd (APBA2_1, Q99767): below the threshold | pKd (DFNB31_3, Q9P202): 3.93 | pKd (DLG1_2, Q12959): below the threshold | pKd (DLG1_3, Q12959): below the threshold | pKd (DLG3_1, Q92796): below the threshold | pKd (GORASP1, Q9BQQ3): below the threshold | pKd (HTRA3, P83110): below the threshold | pKd (Inadl_2, Q8NI35): below the threshold | pKd (Inadl_9, Q8NI35): below the threshold | pKd (LDB3, O75112): below the threshold | pKd (LNX1_2, Q8TBB1): below the threshold | pKd (LNX2_2, Q8N448): below the threshold | pKd (MAGI1_2, Q96QZ7): below the threshold | pKd (MPDZ_10, O75970): 3.68 | pKd (MPP6, Q9NZW5): below the threshold | pKd (NHERF3_1, Q5T2W1): below the threshold | pKd (NHERF3_3, Q5T2W1): below the threshold | pKd (NHERF4_1, Q86UT5-2): 3.51 | pKd (NOS1, P29475): 3.86 | pKd (PDLIM1, O00151): below the threshold | pKd (PICK1, Q9NRD5): 4.06 | pKd (RAPGEF6, Q8TEU7): below the threshold | pKd (SCRIB_3, Q14160): below the threshold | pKd (SNTA1, Q13424): below the threshold | pKd (TJP3_3, O95049): below the threshold

B4: GRIA2, P42262 (peptide)
chain: NVYGIESVKI
pKd (AHNAK1, Q09666): below the threshold | pKd (APBA2_1, Q99767): below the threshold | pKd (DFNB31_3, Q9P202): below the threshold | pKd (DLG1_2, Q12959): 3.96 | pKd (DLG1_3, Q12959): 3.93 | pKd (DLG3_1, Q92796): 3.5 | pKd (GORASP1, Q9BQQ3): 3.58 | pKd (HTRA3, P83110): 3.64 | pKd (Inadl_2, Q8NI35): below the threshold | pKd (Inadl_9, Q8NI35): below the threshold | pKd (LDB3, O75112): below the threshold | pKd (LNX1_2, Q8TBB1): below the threshold | pKd (LNX2_2, Q8N448): 3.85 | pKd (MAGI1_2, Q96QZ7): below the threshold | pKd (MPDZ_10, O75970): 3.57 | pKd (MPP6, Q9NZW5): below the threshold | pKd (NHERF3_1, Q5T2W1): below the threshold | pKd (NHERF3_3, Q5T2W1): below the threshold | pKd (NHERF4_1, Q86UT5-2): 3.78 | pKd (NOS1, P29475): 3.71 | pKd (PDLIM1, O00151): below the threshold | pKd (PICK1, Q9NRD5): below the threshold | pKd (RAPGEF6, Q8TEU7): below the threshold | pKd (SCRIB_3, Q14160): 3.56 | pKd (SNTA1, Q13424): below the threshold | pKd (TJP3_3, O95049): below the threshold

Results, then the binder that gave them:

pKd (AHNAK1, Q09666): below the threshold | pKd (APBA2_1, Q99767): below the threshold | pKd (DFNB31_3, Q9P202): 4.23 | pKd (DLG1_2, Q12959): 4.32 | pKd (DLG1_3, Q12959): 3.99 | pKd (DLG3_1, Q92796): 3.61 | pKd (GORASP1, Q9BQQ3): 3.59 | pKd (HTRA3, P83110): below the threshold | pKd (Inadl_2, Q8NI35): below the threshold | pKd (Inadl_9, Q8NI35): below the threshold | pKd (LDB3, O75112): below the threshold | pKd (LNX1_2, Q8TBB1): below the threshold | pKd (LNX2_2, Q8N448): below the threshold | pKd (MAGI1_2, Q96QZ7): 4.5 | pKd (MPDZ_10, O75970): 3.59 | pKd (MPP6, Q9NZW5): below the threshold | pKd (NHERF3_1, Q5T2W1): 5.64 | pKd (NHERF3_3, Q5T2W1): below the threshold | pKd (NHERF4_1, Q86UT5-2): 4.76 | pKd (NOS1, P29475): 4.03 | pKd (PDLIM1, O00151): 3.48 | pKd (PICK1, Q9NRD5): below the threshold | pKd (RAPGEF6, Q8TEU7): below the threshold | pKd (SCRIB_3, Q14160): 5.06 | pKd (SNTA1, Q13424): 3.94 | pKd (TJP3_3, O95049): below the threshold
B3: RPS6KA3, P51812 (peptide)
chain: GIKKITSTAL

pKd (AHNAK1, Q09666): below the threshold | pKd (APBA2_1, Q99767): below the threshold | pKd (DFNB31_3, Q9P202): 3.97 | pKd (DLG1_2, Q12959): 4.42 | pKd (DLG1_3, Q12959): below the threshold | pKd (DLG3_1, Q92796): below the threshold | pKd (GORASP1, Q9BQQ3): below the threshold | pKd (HTRA3, P83110): below the threshold | pKd (Inadl_2, Q8NI35): below the threshold | pKd (Inadl_9, Q8NI35): below the threshold | pKd (LDB3, O75112): below the threshold | pKd (LNX1_2, Q8TBB1): below the threshold | pKd (LNX2_2, Q8N448): below the threshold | pKd (MAGI1_2, Q96QZ7): below the threshold | pKd (MPDZ_10, O75970): below the threshold | pKd (MPP6, Q9NZW5): 3.52 | pKd (NHERF3_1, Q5T2W1): 3.49 | pKd (NHERF3_3, Q5T2W1): below the threshold | pKd (NHERF4_1, Q86UT5-2): below the threshold | pKd (NOS1, P29475): below the threshold | pKd (PDLIM1, O00151): below the threshold | pKd (PICK1, Q9NRD5): below the threshold | pKd (RAPGEF6, Q8TEU7): below the threshold | pKd (SCRIB_3, Q14160): 4.93 | pKd (SNTA1, Q13424): 5.09 | pKd (TJP3_3, O95049): below the threshold
B5: SLC16A7, O60669 (peptide)
chain: SVTSERETNI
